This passage reports stoichiometry N results from publication PMC4228062.

This experiment has as its target recombinant galectin-7 R74S (human). Nature of the experiment: native gel or EMSA; recombinant gal-7 (wild type or R74S) on a native gel, detected by immunoblot; monomeric and dimeric forms.

Consider “recombinant galectin-7 R74S (natural protein)”, for which the stoichiometry N was found to be 2.
